Where no end group is shown, it is not given here.
B1: DX-890 (designed binder)
chain: EACNLPIVRGPCIAFFPRWAFDAVKGKCVLFPYGGCQGNGNKFYSEKECREYCGVP
modifications: disulfide (positions not given here); also: three intramolecular disulfides, pairing not given here
notes: 56 aa, three intramolecular disulfides; also called EPI-hNE4; Native DX-890
B2: DX-890 conjugated to a 20 kDa PEG moiety (conjugated at pH 6) (designed binder)
chain: B1 chain
modifications: single 20 kDa mPEG (MPEG-SPA20K) attached, mono-PEGylated; reaction at pH 6.0, headed 'N-Terminal-Site Modification'
notes: also called PEG20-DX-890-6.0; +20K PEG, pH 6
B3: DX-890 conjugated to a 20 kDa PEG moiety (conjugated at pH 7.4) (designed binder)
chain: B1 chain
modifications: single 20 kDa mPEG (MPEG-SPA20K) attached, mono-PEGylated; reaction at pH 7.4, headed 'Random-Site Modification' (site not determined)
notes: also called PEG20-DX-890-7.4; +20K PEG, pH 7.4
B4: DX-890 conjugated to a 30 kDa PEG moiety (conjugated at pH 7.4) (designed binder)
chain: B1 chain
modifications: single 30 kDa mPEG (MPEG-SPA30K) attached, mono-PEGylated; reaction at pH 7.4, headed 'Random-Site Modification' (site not determined)
notes: also called PEG30-DX-890-7.4; +30K PEG, pH 7.4
B5: DX-890 conjugated to a 30 kDa PEG moiety (conjugated at pH 6) (designed binder)
chain: B1 chain
modifications: single 30 kDa mPEG (MPEG-SPA30K) attached, mono-PEGylated; reaction at pH 6.0, headed 'N-Terminal-Site Modification'
notes: also called PEG30-DX-890-6.0; +30K PEG, pH 6

Tests used:
[1] = Pharmacokinetic study in mice: plasma clearance of 125I-labeled protein, SEC of plasma; format: in vivo; details: for α half life: Table 4 summary; for α Phase Clearance (%) / α Phase Half-life / β Phase Clearance (%) / β Phase Half-life (hr) / β Phase Half-life (min): tail vein injection, bi-exponential fit
Method: The pharmacokinetics of DX-890 and the PEGylated DX-890 compounds were measured by iodinating the proteins on available tyrosine residues and measuring their clearance in mice.
Samples were radio-iodinated by the indirect method using the IODO-GEN reagent (method from Pierce Chem. Co., and first described by Chizzonite [J Immunol 147, 1548-1556, 1991; J. Immunol 148, 3117-3124, 1992]). Samples were incubated with the ^125I-NaI solution for 9 min at which time tyrosine (10 mg/mL, a saturated solution) was added to quench the reaction. After about 15 min a 5 μl aliquot was removed as a standard for counting.
For each labeling reaction, the ^125I-labeled material (approx. 0.6 mL) was purified using a single 5 mL D-salt 1800 polyacrylamide column (Pierce Chem. Co.). […] Samples were applied in and columns were eluted with a series of 0.3 mL aliquots. Recovery of applied activity in all protein fractions was >75% and the total recovery of applied activity was >90%. The fractions containing peak levels of labeled protein were pooled for animal injections. To prepare the injectate, the pool was diluted with Tris buffer (pH 7.5) so that the 100 μL injection volume contained about 10 μg of labeled material.
Time of injection and time of sampling were recorded. At sacrifice, samples of 0.5 ml were collected into anticoagulant (0.02 ml EDTA). Cells were spun down and separated from plasma, and cells were stored at −20° C. Plasma was divided into two aliquots, one frozen and one stored at 4° C. for immediate analysis. Analysis included gamma counting of all samples. In addition, analysis was performed for two plasma samples (N=2) at each time point, i.e., 0, and 30 minutes, for ^125I-DX-890, and 0, 30 minutes, and 24 h for the ^125I-DX-890-PEG conjugates. A SEC-HPLC Superose-12 column was used with an in-line radiation detector (FIGS. 4-7).
The solid curves through the sets of data plotted in FIG. 3 are four-parameter, least-squares fits of Equation 3 to the data. Table 3 presents the values for % α Phase, α Phase Half-life, % β Phase, and β Phase Half-life extracted from the least squares fits to the in vivo clearance data set obtained for each of the four compounds tested in mice.

[2] = biological target: T1, human neutrophil elastase (HNE) (Homo sapiens, UniProt P08246); experiment: Ki measurement: tight-binding inhibition of HNE, fluorogenic substrate hydrolysis; format: biochemical
T1 sequence (P08246 30-267): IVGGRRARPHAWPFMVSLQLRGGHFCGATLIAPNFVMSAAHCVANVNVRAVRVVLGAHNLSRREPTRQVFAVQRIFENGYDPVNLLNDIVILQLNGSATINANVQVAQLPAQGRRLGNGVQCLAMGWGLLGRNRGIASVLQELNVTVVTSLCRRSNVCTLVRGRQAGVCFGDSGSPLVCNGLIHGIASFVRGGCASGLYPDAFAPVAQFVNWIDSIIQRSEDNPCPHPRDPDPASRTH
Method: (§1) Equilibrium inhibition constants for the PEGylated DX-890 samples were determined according to the tight-binding inhibition model with formation of a reversible complex (1:1 stoichiometry). Reactions were set up with 100 pM enzyme and a range of inhibitor concentrations (0-4 nM) at 30° C. in 50 mM HEPES, pH 7.5, 150 mM NaCl, and 0.1% Triton X-100. Following a 24 h incubation, substrate was added (25 μM) to the enzyme-inhibitor solution and the rate of substrate hydrolysis monitored at an excitation of 360 nm and an emission of 460 nm. Plots of the percent remaining activity versus active inhibitor concentration were fit by nonlinear regression analysis to Equation 1 to determine equilibrium dissociation constants. Both the Dyax DX-890 reference lot 00B16 and the DX-890 used for PEGylations, NBG2016/9 were analyzed for comparison. [formula] Where: • % A=percent activity • I=DX-890 • E=HNE concentration • Ki=equilibrium inhibition constant

[3] = Pharmacokinetic study in rabbits: plasma clearance of 125I-labeled protein, SEC of plasma; format: in vivo, New Zealand White rabbits
Method: Pharmacokinetic properties of DX-890 and PEG-30-DX-890 (conjugation at pH 7.4) were measured by iodinating the proteins and measuring clearance of the radiolabel from circulation in rabbits. The two DX-890 preparations were iodinated with iodine-125 using the iodogen method. After radiolabeling, the two labeled protein preparations were purified from unbound label by size exclusion chromatography (SEC). Fractions from the SEC column having the highest radioactivity were pooled. The purified, radiolabeled preparations were characterized for specific activity by gamma counting and for purity by SEC using a Superose-12 column equipped with an in-line radiation detector.
New Zealand White rabbits (ca. 2.5 Kg) were used for clearance measurements, with one animal used for each of the two labeled protein preparations. The radiolabeled preparation was injected into the animal via an ear vein. One blood sample was collected per animal per time point with early time points at approximately 0, 2.5, 5, 7, 15, 30, 60, and 90 minutes post injection and later time points at 4, 8, 16, 24, 30, 48, 72, 96, 144, 168, and 192 hours post injection. Samples (about 0.5 mL) were collected into anticoagulant (EDTA) containing tubes. Cells were separated from the plasma fraction by centrifugation. The plasma fraction was divided into two aliquots. One plasma aliquot was stored at −70° C. and the other aliquot was kept at 4° C. for immediate analyse's. Sample analyses included radiation counting for clearance rate determinations and SEC chromatography to test for changes in the size distribution of radiolabeled material in vivo (stability).

[4] = biological target: T2, human neutrophil elastase (human, UniProt P08246 30-247); experiment: enzyme inhibition, tight-binding model; 100 pM hNE, 0-4 nM inhibitor, 24 h incubation at 30 C, fluorogenic substrate
T2 construct: also called hNE; HNE
T2 sequence (looked up): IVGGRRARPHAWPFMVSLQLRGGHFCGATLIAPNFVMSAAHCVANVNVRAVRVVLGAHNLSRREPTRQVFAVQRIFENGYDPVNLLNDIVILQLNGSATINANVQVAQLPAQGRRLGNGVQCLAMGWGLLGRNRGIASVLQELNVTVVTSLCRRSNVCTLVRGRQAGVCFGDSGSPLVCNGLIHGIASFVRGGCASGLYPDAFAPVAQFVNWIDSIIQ
Method: as §1, with “comparison.” for “comparison. [formula] Where: • % A=percent activity • I=DX-890 • E=HNE concentration • Ki=equilibrium inhibition constant”

[5] = biological target: T2, human neutrophil elastase; experiment: enzyme inhibition, tight-binding model; 100 pM hNE (summary table, repeats Table 3)
Method: as §1, with “comparison.” for “comparison. [formula] Where: • % A=percent activity • I=DX-890 • E=HNE concentration • Ki=equilibrium inhibition constant”

[6] = biological target: T2, human neutrophil elastase; experiment: enzyme inhibition, tight-binding model; 100 pM hNE; reference native DX-890
Method: as §1, with “comparison.” for “comparison. [formula] Where: • % A=percent activity • I=DX-890 • E=HNE concentration • Ki=equilibrium inhibition constant”

[7] = ear vein injection, bi-exponential fit

Row | Molecule | α Phase Clearance (%) [1] [%] | α Phase Half-life [1] [h] | β Phase Clearance (%) [1] [%] | β Phase Half-life (hr) [1] [h] | β Phase Half-life (min) [1] [min] | Ki [4] [pM] | Ki [5] [pM] | further results
1 | PEG20-DX-890-6.0: DX-890 conjugated to a 20 kDa PEG moiety (MPEG-SPA20K, conjugated at pH 6), mono-PEGylated (EACNLPIVRGPCIAFFPRWAFDAVKGKCVLFPYGGCQGNGNKFYSEKECREYCGVP) | 53 | 0.278 | 47 | 4.9 | 296 |  |  | α half life [1]: 0.25 h
2 | PEG20-DX-890-7.4: DX-890 conjugated to a 20 kDa PEG moiety (MPEG-SPA20K, conjugated at pH 7.4), mono-PEGylated (EACNLPIVRGPCIAFFPRWAFDAVKGKCVLFPYGGCQGNGNKFYSEKECREYCGVP) | 58 | 0.417 | 42 | 5.1 | 307 |  |  | 
3 | PEG30-DX-890-6.0: DX-890 conjugated to a 30 kDa PEG moiety (MPEG-SPA30K, conjugated at pH 6), mono-PEGylated (EACNLPIVRGPCIAFFPRWAFDAVKGKCVLFPYGGCQGNGNKFYSEKECREYCGVP) | 33 | 0.32 | 67 | 8.4 | 505 |  |  | β phase half life [1]: about 8 hr; α half life [1]: 0.317 h
4 | PEG30-DX-890-7.4: DX-890 conjugated to a 30 kDa PEG moiety (MPEG-SPA30K, conjugated at pH 7.4), mono-PEGylated (EACNLPIVRGPCIAFFPRWAFDAVKGKCVLFPYGGCQGNGNKFYSEKECREYCGVP; not fully specified) |  |  |  |  |  |  |  | Ki relative to native DX-890 [2]: twice; fraction of total material in the slow clearance portion relative to unmodified DX-890 [3]: nearly doubles; in vivo half-life [3]: about 3 days; increase of T1/2β versus unmodified protein [3]: about 25 fold; time label remains stably associated with injectate peaks ([3]; SEC analysis of plasma samples): at least 72 hours; % α [3, 7]: 55%; % β [3, 7]: 45%; T1/2α [3, 7]: 2.73 h; T1/2β [3, 7]: 69.23 h; relative levels of circulating radiolabel versus unmodified protein ([3]; one day post injection): more than 100 fold
5 | B1 |  |  |  |  |  | 7 | 7 | 
6 | B2 |  |  |  |  |  | 7 | 7 | 
7 | B3 |  |  |  |  |  | 8 | 8 | 
8 | B4 |  |  |  |  |  | 16 | 16 | fold Ki relative to native DX-890 [6]: 2 fold
9 | B5 |  |  |  |  |  | 8 | 8 | 

From patent publication US20070020252A1, “Modified protease inhibitors” (priority 2003, published 2007)
